Values of other authors in patent US20240382567A1, “Long-acting PTH compound treatments” (Ascendis Pharma Bone Diseases A/S, priority 2021, published 2024).
Read-outs that look alike come from different tables or passages of the source.

Test system: patients with hypoparathyroidism

B1: PTH(1-84): daily injection of PTH(1-84), approved as adjunct to calcium and vitamin D to control hypocalcemia in hypoparathyroidism (protein, UniProt P01270 32-115, looked up)
Parathyroid hormone: SVSEIQLMHNLGKHLNSMERVEWLRKKLQDVHNFVALGAPLAPRDAGSQRPRKKEDNVLVESHEKSLGEADKADVNVLTKAKSQ
modifications: Parathyroid hormone
notes: daily injection of PTH(1-84), approved as adjunct to calcium and vitamin D to control hypocalcemia in hypoparathyroidism
Q: With B1 as the molecule, how does the “Total hip BMD increase from baseline” value (3 years, P=0.04) read?
A: 2.10%

Q: What about the “Lumbar spine BMD increase” value (at 24 months, P=0.01) of the same molecule?
A: 3.2%

Q: And the “Distal one third radius BMD mean loss” value (study conclusion (year 6), P=0.0001 vs baseline)?
A: 4.4%

Q: What about the “Femoral neck BMD increase” value (year 3, P=0.04) of the same molecule?
A: 2.6%

Q: And the “Distal one third radius T-score” value (year 6)?
A: −0.28

Q: What about the “Femoral neck BMD versus baseline” value (year 6) of the same molecule?
A: not different from baseline

Q: What about the “Lumbar spine BMD mean gain from baseline” value (year 6, P=0.004) of the same molecule?
A: 3.8%

Q: And the “Total hip BMD increase from baseline” value (year 6, P=0.02)?
A: 2.4%
